The text below walks through data of patent US20020052480A1.

Test [1] concerns the target human fibroblast activation protein alpha (FAP), on the cell surface (HT-1080FAP clone 33, 293FAP I/2, MF-SH cells, tumor stromal fibroblasts) (human) (UniProt Q12884). In words: flow cytometry, HT-1080FAP clone 33 cells, antibody at 4.0 ng/ml, anti-human IgG FITC. (In flow cytometry, cells or beads pass a laser one at a time.)
For test [2] the target is unchanged. In words: flow cytometry, HT-1080FAP clone 33 cells, biotinylated antibody at 40.0 ng/ml, streptavidin-FITC.
Test [3] has the same target. In words: flow cytometry competition against 1 µg/ml biotinylated cF19 on HT-1080FAP clone 33 cells; competitor at 1.00 µg/ml.
For test [4] the target is unchanged. In words: flow cytometry, HT-1080FAP clone 33 cells, biotinylated antibody at 8.0 ng/ml, streptavidin-FITC.
Test [5] has the same target. In words: flow cytometry, HT-1080FAP clone 33 cells, biotinylated antibody at 1.6 ng/ml, streptavidin-FITC.
The target is the same in test [6]. Put plainly: flow cytometry, MF-SH cells (endogenous FAP), antibody at 4,000 ng/ml.
The target is the same in test [7]. In words: flow cytometry, HT-1080FAP clone 33 cells, antibody at 0.8 ng/ml, anti-human IgG FITC.
Test [8] shares this target. In words: flow cytometry competition against 1 µg/ml biotinylated cF19 on HT-1080FAP clone 33 cells; competitor at 3.16 µg/ml.
For test [9] the target is unchanged. In words: flow cytometry, HT-1080FAP clone 33 cells, biotinylated antibody at 5,000.0 ng/ml, streptavidin-FITC.
For test [10] the target is unchanged. In words: flow cytometry, HT-1080FAP clone 33 cells, antibody at 20 ng/ml, anti-human IgG FITC.
The target is the same in test [11]. In words: flow cytometry competition against 1 µg/ml biotinylated cF19 on HT-1080FAP clone 33 cells; competitor at 10.00 µg/ml.
The target is the same in test [12]. Put plainly: flow cytometry competition against 1 µg/ml biotinylated cF19 on HT-1080FAP clone 33 cells; competitor at 31.66 µg/ml.
For test [13] the target is unchanged. In words: flow cytometry, HT-1080FAP clone 33 cells, biotinylated antibody at 1,000.0 ng/ml, streptavidin-FITC.
Test [14] shares this target. Put plainly: flow cytometry, HT-1080FAP clone 33 cells, biotinylated antibody at 200.0 ng/ml, streptavidin-FITC.
For test [15] the target is unchanged. Put plainly: flow cytometry, HT-1080FAP clone 33 cells, antibody at 500 ng/ml, anti-human IgG FITC.
Test [16] has the same target. Put plainly: flow cytometry, HT-1080FAP clone 33 cells, antibody at 100 ng/ml, anti-human IgG FITC.

Sequence of UniProt Q12884 (Q12884 whole entry): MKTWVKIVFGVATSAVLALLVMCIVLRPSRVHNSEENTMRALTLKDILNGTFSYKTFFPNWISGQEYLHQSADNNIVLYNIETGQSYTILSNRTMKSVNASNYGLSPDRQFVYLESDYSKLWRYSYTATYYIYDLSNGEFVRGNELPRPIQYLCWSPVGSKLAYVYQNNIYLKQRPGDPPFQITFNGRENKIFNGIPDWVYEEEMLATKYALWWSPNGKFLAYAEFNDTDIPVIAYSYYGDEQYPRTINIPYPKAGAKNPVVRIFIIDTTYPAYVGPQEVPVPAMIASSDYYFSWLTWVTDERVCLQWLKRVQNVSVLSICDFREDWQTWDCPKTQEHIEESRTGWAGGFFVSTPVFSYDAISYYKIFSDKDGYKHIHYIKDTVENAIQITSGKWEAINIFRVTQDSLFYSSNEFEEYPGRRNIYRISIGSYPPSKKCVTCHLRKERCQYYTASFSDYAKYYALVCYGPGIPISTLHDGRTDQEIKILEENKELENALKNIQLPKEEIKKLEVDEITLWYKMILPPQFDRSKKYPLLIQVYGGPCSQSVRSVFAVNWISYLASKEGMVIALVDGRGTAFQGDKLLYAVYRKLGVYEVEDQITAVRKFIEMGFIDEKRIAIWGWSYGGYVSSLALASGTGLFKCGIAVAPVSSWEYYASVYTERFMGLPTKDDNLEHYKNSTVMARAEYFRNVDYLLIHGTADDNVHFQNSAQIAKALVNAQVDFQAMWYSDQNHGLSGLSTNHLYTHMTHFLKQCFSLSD

As to “hIgG1 (human immunoglobulin, IgG1 subclass), isotype control (antibody)”, the Mean fluorescence intensity in test [1] worked out at 0.12; in [2], 0.2; in test [4] it was 0.2; in [5], 0.3; in [6] it was 0.6; in test [7], 0.12. The Mean fluorescence intensity worked out at 0.2 in test [9]; 0.12 in test [10]; 0.2 in [13]; 0.2 in test [14]; 0.12 in [15]; 0.12 in test [16]. Also, the Mean fluorescence concentration was found to be 9 in test [3], 11.3 in test [8], 9.8 in test [11] and 10.3 in test [12].
